From publication PMC3178605, “No Interaction of Barrier-to-Autointegration Factor (BAF) with HIV-1 MA, Cone-Rod Homeobox (Crx) or MAN1-C in Absence of DNA” (PLoS ONE, 2011)
Where no end group is shown, it is not given here.

T1: Barrier-to-autointegration factor (BAF), human, unlabeled (human, UniProt O75531 1-89)
T1 construct: Barrier-to-autointegration factor (BAF/BANF1), human; Used unlabeled in the NMR experiments; also called BANF1; BAF2 (the dimer); source: cloned and purified as described [12]
T1 sequence (looked up): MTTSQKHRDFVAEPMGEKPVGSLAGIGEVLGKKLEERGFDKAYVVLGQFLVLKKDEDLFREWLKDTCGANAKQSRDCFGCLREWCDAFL

T2: MAN1-C (UniProt Q9Y2U8 650-911)
T2 sequence: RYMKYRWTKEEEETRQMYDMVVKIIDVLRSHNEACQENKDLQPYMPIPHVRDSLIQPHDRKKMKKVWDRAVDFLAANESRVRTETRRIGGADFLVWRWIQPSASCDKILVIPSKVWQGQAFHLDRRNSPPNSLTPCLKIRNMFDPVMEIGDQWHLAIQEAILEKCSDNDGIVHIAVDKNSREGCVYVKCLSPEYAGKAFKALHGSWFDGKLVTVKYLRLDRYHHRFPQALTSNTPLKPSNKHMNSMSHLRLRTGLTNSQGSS

B1: LEM domain of Emerin (residues 1-47), 15N-labeled (domain or fragment, UniProt P50402 1-47, looked up)
chain: MDNYADLSDTELTTLLRRYNIPHGPVVGSTRRLYEKKIFEYETQRRR
modifications: also: 15N-labeled
notes: Emerin, LEM domain, residues 1-47; Uniformly 15N-labeled for NMR; also called Emerin LEM domain; source: cloned and purified as described [12]
B2: LEM domain of MAN1 (residues 1-52), 15N-labeled (domain or fragment, UniProt Q9Y2U8 1-52, looked up)
chain: MAAAAASAPQQLSDEELFSQLRRYGLSPGPVTESTRPVYLKKLKKLREEEQQ
modifications: also: 15N-labeled
notes: MAN1 (inner nuclear membrane protein), LEM domain, residues 1-52; Uniformly 15N-labeled for NMR; also called MAN1 LEM domain; MAN-1 LEM domain; source: cloned and purified as described [12]
B3: 16 mer DNA duplex (dsDNA)
DNA 1: CCAGCACAAACACCTG
DNA 2: CAGGTGTTTGTGCTGG

Experiments:
[1] = target: T1, Barrier-to-autointegration factor …; assay: NMR titration; 1H-15N HSQC of 50 µM 15N-labeled LEM domain without and with 200 µM unlabeled BAF2; 25 mM potassium phosphate pH 6.5, 200 mM NaCl, 2 mM 2-mercaptoethanol, 27°C; conditions: both partners purified
MAN1-C = target: T2, MAN1-C; assay: NMR (1H-15N HSQC); 150 mM NaCl?; NMR: 25 mM potassium phosphate pH 6.5, 2 mM 2-mercaptoethanol, 95% H2O/5% D2O, 200 mM NaCl (Crx samples) or 150 mM NaCl (MAN1-C samples); salt for MA and temperature not given. The pull-down used undefined sonicated salmon sperm DNA (not listed); conditions: protein: recombinant; tags: His6-thioredoxin removed by thrombin; blunt

Binder | binding result [1] | binding result (MAN1-C)
B1 | binds | –
B2 | binds | –
B3 | – | binds
